The nature of test [1]: Glucose levels after subcutaneous injection in Chow or high fat diet mice. The conditions noted are these: 0.5 mg/kg subcutaneous; vs buffer. It counts as in vivo, C57BL6 mice. The procedure: To determine whether induction of UCP1 and mitochondrial activity by FGF6 could lead to increased nutrient utilization and lower blood glucose or fatty acid in obese mice, diet-induced obese (DIO) mice were treated with recombinant FGF6, and glucose levels were monitored after injection. Specifically, C57BL6 mice (11 weeks) were fed on either a high fat diet (HFD) or a Chow diet (a regular animal diet as a control) and were injected subcutaneously with 0.5 mg/kg recombinant FGF6 (n=5) or buffer (n=5). Glucose levels were measured every 6 hours after injection.

The subject of the next test is UCP1. The experiment in a line: UCP1 mRNA expression in SVF cells from interscapular brown adipose tissue (BAT-SVF). In kind it is cell-based, C57BL/6 mice. Particulars: growth media, 3 days; vs control. How it is done: Eight 6-week old C57BL/6 male mice were sacrificed. Interscapular BAT and axillary subcutaneous WAT were removed, minced and digested with 1 mg/ml collagenase for 45 minutes at 37° C. in DMEM/F12 media, containing 1% BSA and antibiotics. Digested tissues were filtered through sterile 150 μm nylon mesh and centrifuged at 250×g for 5 minutes. The floating fractions consisting of adipocytes were discarded and the pellets representing the SVF were then resuspended in erythrocyte lysis buffer (154 mM NH4Cl, 10 mM KHCO3, 0.1 mM EDTA) for 10 minutes to remove red blood cells. The cells were further centrifuged at 500×g for 5 minutes, plated at 8×10^5 cells/well of a 24-well plate and grown at 37° C. in DMEM/F12 supplemented with 10% FBS at 37° C.
To determine if FGF6 treatment of primary adipose progenitors could also increase UCP1 expression as observed in Example 1, stromo-vascular fraction (SVF) cells, which comprise adipocyte progenitors, were isolated from interscapular brown adipose tissue (BAT-SVF) and subcutaneous white adipose tissue (SQ-SVF). SVF cells were subsequently treated with FGF6 or FGF21 in growth media (DMEM+10% FBS) for 3 days, followed by determination of UCP1 expression. As described in FIGS. 9A and 9B, FGF21 treatment had little effect on UCP1 mRNA expression in either type of SVF cells, as compared to the control. […]

The next test relates to WT-1 brown preadipocytes. Nature of the test: 2-deoxy-[3H]glucose uptake in WT-1 brown preadipocytes. Particulars: FGF6 overexpressing vs control and EGF. In kind it is cell-based, murine. The procedure:
(§1) The following glucose uptake assay was used to determine whether FGF6 could impact cellular glucose uptake. Specifically, glucose uptake was monitored in WT-1 brown preadipocytes and 3T3-F442A white preadipocytes in the presence or absence of FGF6. After serum starvation in DMEM/H medium containing 1% of BSA for 2-3 h, cells were washed with HEPES buffer and then incubated with or without 100 nM insulin for 30 min in DMEM/H medium containing 1% of BSA. Glucose transport was determined by the addition of 2-deoxy-[3H]glucose (0.1 mM, 0.5 μCi/mL; PerkinElmer Life and Analytical Science, Waltham, Mass.). After 5 minutes of incubation, the reaction was stopped by ice-cold PBS and cells were washed twice with ice-cold PBS. Cells were then lysed in 0.1% SDS, and glucose uptake was assessed in 4 mL of scintillant using Beckman LS6500 scintillation counter (Beckman Coulter, Indianapolis Ind.). Nonspecific 2-deoxy-[3H]glucose uptake was measured in the presence of cytochalasin B (20 μM) and was subtracted from the total uptake to get specific glucose uptake. Results were expressed as the mean±s.e.m. of the indicated number of experiments. The protein content was determined by the Bradford method.
The role of PGs in regulating mitochondrial function and cellular glucose uptake was also assessed. […]

The test system of test [2] is 3T3-F442A white preadipocytes. The experiment in a line: 2-deoxy-[3H]glucose uptake in 3T3-F442A white preadipocytes. In kind it is cell-based. The conditions noted are these: FGF6 overexpressing vs control and EGF. How it is done:
as §1

“Also recorded” adds a separate entry of the source.

B1: FGF6: fibroblast growth factor 6; recombinant human FGF from R&D Systems, or mouse FGF6 cDNA overexpressed by lentiviral vector (protein)
chain: KRQRRLYCNVGIGFHLQVLPDGRISGTHEENPYSLLEISTVERGVVSLFGVRSALFVAMNSKGRLYATPSFQEECKFRETLLPNNYNAYESDLYQGTYIALSKYGRVKRGSKVSPIMTVTHFLPRI
On to B1, for which, in test [1], the “glucose level, Chow diet mice” value is recorded as “reduction in glucose levels; also recorded: lowers glucose levels” and the “glucose level, high fat diet (obese) mice” value was “lowers glucose levels”. The “increase of UCP1 mRNA expression in BAT-SVF” value in the test with UCP1 came to 4 fold. Also, in the test on WT-1 brown preadipocytes, the “glucose uptake level in WT-1 (brown) preadipocytes” value was “increased”. Also, in test [2], the “glucose uptake level in F442A (white) preadipocytes” value was “increased”.

The values are drawn from patent publication US20170173114A1, “METHODS AND COMPOSITIONS FOR INDUCTION OF UCP1 EXPRESSION” (Joslin Diabetes Center, Inc., priority 2014, published 2017).
